Results: patent US20150344570A1 (published 2015)

Columns and labels:
FcγRIIIa = biological target: T1, FcγRIIIa (human, UniProt P08637 17-208); assay: SPR (Biacore), relative binding
T1 construct: extracellular domain; also called FcgRIIIa; 3a

FcγRIIb = biological target: T2, FcγRIIb (human, UniProt P31994 43-217); assay: SPR (Biacore), relative binding
T2 construct: extracellular domain; also called FcgRIIb; 2b
T2 sequence (looked up): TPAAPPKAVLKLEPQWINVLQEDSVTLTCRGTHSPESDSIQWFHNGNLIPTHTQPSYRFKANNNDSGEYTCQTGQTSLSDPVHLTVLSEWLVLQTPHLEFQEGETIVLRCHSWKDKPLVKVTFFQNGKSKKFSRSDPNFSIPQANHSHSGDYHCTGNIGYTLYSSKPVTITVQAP

T1 sequence (P08637 17-208): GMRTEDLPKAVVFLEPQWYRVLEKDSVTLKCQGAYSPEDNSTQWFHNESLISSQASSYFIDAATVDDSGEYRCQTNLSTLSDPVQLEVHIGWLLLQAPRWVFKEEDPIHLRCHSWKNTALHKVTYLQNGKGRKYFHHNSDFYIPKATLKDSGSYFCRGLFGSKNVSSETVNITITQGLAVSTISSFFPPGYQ

B1: GpH7-A5/GpH7-B3 variant N325_13S/GpL16-k0 (antibody, human IgG1, kappa)
heavy 1: not shown
heavy 2: not shown
light: DIVMTQSPLSLPVTPGEPASISCQASESLVHSNRNTYLHWYLQKPGQSPQLLIYKVSNRFSGVPDRFSGSGSGTDFTLKISRVEAEDVGVYYCSQNTHVPPTFGQGTKVEIERTVAAPSVFIFPPSDEQLKSGTASVVCLLNNFYPREAKVQWKVDNALQSGNSQESVTEQDSKDSTYSLSSTLTLSKADYEKHKVYACEVTHQGLSSPVTKSFNRGEC
notes: mutation in the GpH7-B3 chain only; also called He Ab
**Q.** Which He/Con_3a (FcγRIIIa) does the source give for B1 here?
**A.** 65.1 % of GpH7-A5/GpH7-B3/GpL16-k0

**Q.** And the He/Con_2b (FcγRIIb)?
**A.** 177 % of GpH7-A5/GpH7-B3/GpL16-k0

B2: GpH7-A5/GpH7-B3 variant N325_20W/GpL16-k0 (antibody, human IgG1, kappa)
heavy 1: not shown
heavy 2: not shown
light: DIVMTQSPLSLPVTPGEPASISCQASESLVHSNRNTYLHWYLQKPGQSPQLLIYKVSNRFSGVPDRFSGSGSGTDFTLKISRVEAEDVGVYYCSQNTHVPPTFGQGTKVEIERTVAAPSVFIFPPSDEQLKSGTASVVCLLNNFYPREAKVQWKVDNALQSGNSQESVTEQDSKDSTYSLSSTLTLSKADYEKHKVYACEVTHQGLSSPVTKSFNRGEC
notes: as for B1
**Q.** What does the source list for B2?
**A.** He/Con_3a (FcγRIIIa): 32.8 % of GpH7-A5/GpH7-B3/GpL16-k0; He/Con_2b (FcγRIIb): 169 % of GpH7-A5/GpH7-B3/GpL16-k0

B3: GpH7-A5/GpH7-B3 variant P331_03V/GpL16-k0 (antibody, human IgG1, kappa)
heavy 1: not shown
heavy 2: not shown
light: DIVMTQSPLSLPVTPGEPASISCQASESLVHSNRNTYLHWYLQKPGQSPQLLIYKVSNRFSGVPDRFSGSGSGTDFTLKISRVEAEDVGVYYCSQNTHVPPTFGQGTKVEIERTVAAPSVFIFPPSDEQLKSGTASVVCLLNNFYPREAKVQWKVDNALQSGNSQESVTEQDSKDSTYSLSSTLTLSKADYEKHKVYACEVTHQGLSSPVTKSFNRGEC
notes: as for B1
**Q.** For B3, which He/Con_3a (FcγRIIIa) is on record?
**A.** 73.2 % of GpH7-A5/GpH7-B3/GpL16-k0

**Q.** And the He/Con_2b (FcγRIIb)?
**A.** 119 % of GpH7-A5/GpH7-B3/GpL16-k0

B4: GpH7-A5/GpH7-B3 variant P331_04F/GpL16-k0 (antibody, human IgG1, kappa)
heavy 1: not shown
heavy 2: not shown
light: DIVMTQSPLSLPVTPGEPASISCQASESLVHSNRNTYLHWYLQKPGQSPQLLIYKVSNRFSGVPDRFSGSGSGTDFTLKISRVEAEDVGVYYCSQNTHVPPTFGQGTKVEIERTVAAPSVFIFPPSDEQLKSGTASVVCLLNNFYPREAKVQWKVDNALQSGNSQESVTEQDSKDSTYSLSSTLTLSKADYEKHKVYACEVTHQGLSSPVTKSFNRGEC
notes: as for B1
**Q.** Which results are given for B4?
**A.** He/Con_3a (FcγRIIIa): 77.3 % of GpH7-A5/GpH7-B3/GpL16-k0; He/Con_2b (FcγRIIb): 110 % of GpH7-A5/GpH7-B3/GpL16-k0

B5: GpH7-A5/GpH7-B3 variant P331_06M/GpL16-k0 (antibody, human IgG1, kappa)
heavy 1: not shown
heavy 2: not shown
light: DIVMTQSPLSLPVTPGEPASISCQASESLVHSNRNTYLHWYLQKPGQSPQLLIYKVSNRFSGVPDRFSGSGSGTDFTLKISRVEAEDVGVYYCSQNTHVPPTFGQGTKVEIERTVAAPSVFIFPPSDEQLKSGTASVVCLLNNFYPREAKVQWKVDNALQSGNSQESVTEQDSKDSTYSLSSTLTLSKADYEKHKVYACEVTHQGLSSPVTKSFNRGEC
notes: as for B1
**Q.** Which He/Con_3a (FcγRIIIa) does the source give for B5 here?
**A.** 74.8 % of GpH7-A5/GpH7-B3/GpL16-k0

**Q.** And the He/Con_2b (FcγRIIb)?
**A.** 102 % of GpH7-A5/GpH7-B3/GpL16-k0

B6: GpH7-A5/GpH7-B3 variant P331_07I/GpL16-k0 (antibody, human IgG1, kappa)
heavy 1: not shown
heavy 2: not shown
light: DIVMTQSPLSLPVTPGEPASISCQASESLVHSNRNTYLHWYLQKPGQSPQLLIYKVSNRFSGVPDRFSGSGSGTDFTLKISRVEAEDVGVYYCSQNTHVPPTFGQGTKVEIERTVAAPSVFIFPPSDEQLKSGTASVVCLLNNFYPREAKVQWKVDNALQSGNSQESVTEQDSKDSTYSLSSTLTLSKADYEKHKVYACEVTHQGLSSPVTKSFNRGEC
notes: as for B1
**Q.** B6 was tested. Which He/Con_3a (FcγRIIIa) did it give?
**A.** 66 % of GpH7-A5/GpH7-B3/GpL16-k0

**Q.** And the He/Con_2b (FcγRIIb)?
**A.** 114 % of GpH7-A5/GpH7-B3/GpL16-k0

B7: GpH7-A5/GpH7-B3 variant P331_10E/GpL16-k0 (antibody, human IgG1, kappa)
heavy 1: not shown
heavy 2: not shown
light: DIVMTQSPLSLPVTPGEPASISCQASESLVHSNRNTYLHWYLQKPGQSPQLLIYKVSNRFSGVPDRFSGSGSGTDFTLKISRVEAEDVGVYYCSQNTHVPPTFGQGTKVEIERTVAAPSVFIFPPSDEQLKSGTASVVCLLNNFYPREAKVQWKVDNALQSGNSQESVTEQDSKDSTYSLSSTLTLSKADYEKHKVYACEVTHQGLSSPVTKSFNRGEC
notes: as for B1
**Q.** What does the source list for B7?
**A.** He/Con_3a (FcγRIIIa): 75.1 % of GpH7-A5/GpH7-B3/GpL16-k0; He/Con_2b (FcγRIIb): 116 % of GpH7-A5/GpH7-B3/GpL16-k0

B8: GpH7-A5/GpH7-B3 variant P331_15Y/GpL16-k0 (antibody, human IgG1, kappa)
heavy 1: not shown
heavy 2: not shown
light: DIVMTQSPLSLPVTPGEPASISCQASESLVHSNRNTYLHWYLQKPGQSPQLLIYKVSNRFSGVPDRFSGSGSGTDFTLKISRVEAEDVGVYYCSQNTHVPPTFGQGTKVEIERTVAAPSVFIFPPSDEQLKSGTASVVCLLNNFYPREAKVQWKVDNALQSGNSQESVTEQDSKDSTYSLSSTLTLSKADYEKHKVYACEVTHQGLSSPVTKSFNRGEC
notes: as for B1
**Q.** With B8 as the binder, how does the He/Con_3a (FcγRIIIa) read?
**A.** 81.9 % of GpH7-A5/GpH7-B3/GpL16-k0

**Q.** What about the He/Con_2b (FcγRIIb) of the same binder?
**A.** 114 % of GpH7-A5/GpH7-B3/GpL16-k0

B9: GpH7-A5/GpH7-B3 variant P331_16H/GpL16-k0 (antibody, human IgG1, kappa)
heavy 1: not shown
heavy 2: not shown
light: DIVMTQSPLSLPVTPGEPASISCQASESLVHSNRNTYLHWYLQKPGQSPQLLIYKVSNRFSGVPDRFSGSGSGTDFTLKISRVEAEDVGVYYCSQNTHVPPTFGQGTKVEIERTVAAPSVFIFPPSDEQLKSGTASVVCLLNNFYPREAKVQWKVDNALQSGNSQESVTEQDSKDSTYSLSSTLTLSKADYEKHKVYACEVTHQGLSSPVTKSFNRGEC
notes: as for B1
**Q.** How did the He/Con_3a (FcγRIIIa) turn out when B9 was run?
**A.** 80.2 % of GpH7-A5/GpH7-B3/GpL16-k0

**Q.** And the He/Con_2b (FcγRIIb)?
**A.** 116 % of GpH7-A5/GpH7-B3/GpL16-k0

B10: GpH7-A5/GpH7-B3 variant P331_20W/GpL16-k0 (antibody, human IgG1, kappa)
heavy 1: not shown
heavy 2: not shown
light: DIVMTQSPLSLPVTPGEPASISCQASESLVHSNRNTYLHWYLQKPGQSPQLLIYKVSNRFSGVPDRFSGSGSGTDFTLKISRVEAEDVGVYYCSQNTHVPPTFGQGTKVEIERTVAAPSVFIFPPSDEQLKSGTASVVCLLNNFYPREAKVQWKVDNALQSGNSQESVTEQDSKDSTYSLSSTLTLSKADYEKHKVYACEVTHQGLSSPVTKSFNRGEC
notes: as for B1
**Q.** For B10, which He/Con_3a (FcγRIIIa) is on record?
**A.** 78.6 % of GpH7-A5/GpH7-B3/GpL16-k0

**Q.** And the He/Con_2b (FcγRIIb)?
**A.** 111 % of GpH7-A5/GpH7-B3/GpL16-k0
